Measurements reported in PMC6094050, “O-GlcNAcylation Signal Mediates Proteasome Inhibitor Resistance in Cancer Cells by Stabilizing NRF1” (Molecular and Cellular Biology, 2018).

Target: T1, GST–HCF-1-C (GST fusion of the C-terminal half of human HCF-1, 1012–2036) (human, UniProt P51610 1012-2035)
T1 construct: HCF-1 (host cell factor C1), human, C-terminal half, residues 1012-2036 as printed; the printed end 2036 may count the stop codon; also called pGEX4T-1-hHCF-1-C; source: E. coli BL21(DE3), purified from soluble lysates
T1 sequence (looked up): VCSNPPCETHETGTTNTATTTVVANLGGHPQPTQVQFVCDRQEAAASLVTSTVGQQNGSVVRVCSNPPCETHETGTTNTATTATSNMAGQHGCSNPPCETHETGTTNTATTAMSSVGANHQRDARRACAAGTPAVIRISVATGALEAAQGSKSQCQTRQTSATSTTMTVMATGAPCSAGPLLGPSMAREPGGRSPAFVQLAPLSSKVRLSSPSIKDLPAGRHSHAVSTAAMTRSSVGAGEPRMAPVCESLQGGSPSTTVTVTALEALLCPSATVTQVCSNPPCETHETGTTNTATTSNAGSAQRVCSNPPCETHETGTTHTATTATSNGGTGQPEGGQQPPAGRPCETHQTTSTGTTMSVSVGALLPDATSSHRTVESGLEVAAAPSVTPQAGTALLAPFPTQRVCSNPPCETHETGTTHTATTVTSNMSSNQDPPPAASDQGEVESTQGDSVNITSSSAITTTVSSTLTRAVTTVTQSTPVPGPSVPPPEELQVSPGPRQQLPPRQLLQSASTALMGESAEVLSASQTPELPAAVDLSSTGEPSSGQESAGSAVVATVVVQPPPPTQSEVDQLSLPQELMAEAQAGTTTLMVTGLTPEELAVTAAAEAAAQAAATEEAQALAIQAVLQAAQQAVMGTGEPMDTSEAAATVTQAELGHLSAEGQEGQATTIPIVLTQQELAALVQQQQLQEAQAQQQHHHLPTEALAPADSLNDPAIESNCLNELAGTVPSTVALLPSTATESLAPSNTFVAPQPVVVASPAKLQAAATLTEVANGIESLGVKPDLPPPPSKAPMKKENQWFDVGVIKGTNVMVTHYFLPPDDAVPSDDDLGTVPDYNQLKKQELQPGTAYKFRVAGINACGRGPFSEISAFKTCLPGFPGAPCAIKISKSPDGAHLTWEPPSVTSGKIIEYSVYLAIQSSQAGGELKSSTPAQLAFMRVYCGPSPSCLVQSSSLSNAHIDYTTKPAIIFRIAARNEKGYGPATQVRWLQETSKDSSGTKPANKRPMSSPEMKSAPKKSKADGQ
Test: pull-down; glutathione-Sepharose-immobilized GST-OGT and GST–HCF-1-C incubated with recombinant His6-tagged NRF1 fragments Fr. 1 and Fr. 2; washed extensively with PBS-T; immunoblot with anti-His6 and anti-GST
Conditions: both partners purified

B1: mNRF1-Neh6L-His6 (Fr. 2; 431–580) (domain or fragment, mouse, UniProt Q61985 431-580, looked up)
chain: GFNPVQASQLEEEFDSDSGLSLDSSHSPSSLSSSEGSSSSSSSSSSSSASSSASSSFSEEGAVGYSSDSETLDLEEAEGAVGYQPEYSKFCRMSYQDPSQLSCLPYLEHVGHNHTYNMAPSALDSADLPPPSTLKKGSKEKQADFLDKQM
notes: NRF1, mouse, Neh6L domain, residues 431-580; The name is printed both as NRF1-Neh6L-His6 and as His6-NRF1-Neh6L; also called His6-NRF1-Neh6L; fragment 2; source: E. coli BL21(DE3), purified (Ni-NTA agarose)
B1: binds.
